The text below walks through data of patent US6984382 (dated 2006).

The test addresses T1, purified extracellular domain of the erbB-2 protein (human, UniProt P04626 23-652).
T1 construct: extracellular domain; also called erbB-2^ecd; soluble erbB-2 receptor
Put plainly: flow cytometry. The procedure: Cell surface expression and erbB-2 receptor binding ability of the scFv(FRP5):hinge:ζ protein in transduced C196 CTL and in transduced Jurkat cells are confirmed by flow cytometry.
Single-cell suspensions of 5 ×10^5 viable cells (Jurkat cells, JFYZ.4 cells, C196 cells, CFYZ.1 cells) are stained with the purified extracellular domain of the erbB-2 protein (erbB-2^ecd, expressed in Sf9 insect cells using a baculovirus expression vector; Disis et al., Cancer Res. 54, 16–20 (1994)) for 1 hour followed by the FITC-conjugated anti-erbB-2 monoclonal antibody FSP77 (European patent application EP-A-502 812) for 45 min at 4° C. in 100 µl PBS containing 1% BSA and 0.1% sodium azide. FSP77 also is specific for the extracellular domain of the erbB-2 receptor, but recognizes a different epitope from mAb FRP5 (I. M. Harwerth et al., J. Biol. Chem. 21, 15160–15167 (1992)).
(In general: Flow cytometry measures light scatter and fluorescence of single cells or particles in a stream.)

B1: scFv(FRP5):hinge:ζ protein (receptor)
chain: QIQLVQSGPELKKPGETVKISCKASGYPFTNYGMNWVKQAPGQGLKWMGWINTSTGESTFADDFKGRFDFSLETSANTAYLQINNLKSEDMATYFCARWEVYHGYVPYWGQGTTVTVSSGGGGSGGGGSGGGGSDIQLTQSHKFLSTSVGDRVSITCKASQDVYNAVAWYQQKPGQSPKLLIYSASSRYTGVPSRFTGSGSGPDFTFTISSVQAEDLAVYFCQQHFRTPFTFGSGTKLEIKALEISNSVMYFSSVVPVLQKVNSTTTKPVLRTPSPVHPTGTSQPQRPEDCRPRGSVKGTGLDFLEDPKLCYLLDGILFIYGVIITALYLRAKFSRSAETAANLQDPNQLYNELNLGRREEYDVLEKKRARDPEMGGKQQRRRNPQEGVYNALQKDKMAEAYSEIGTKGERRRGKGHDGLYQGLSTATKDTYDALHMQTLAPR
notes: Stood on the surface of transduced murine CTL C196 (clone CFYZ.1) and human Jurkat cells (clone JFYZ.4); On cells it is found as disulfide-linked homodimers and as heterodimers with endogenous ζ; also called scFv(FRP5):hinge:zeta; scFv:hinge:ζ
Take B1: the binding result is recorded as “binds”.
